Source: paper PMC11213948 (2024)

B1: Xpress-His G5_(845–1508) [not stated] / G5_(1–1508)-FLAG [not stated] (parent complex)
chain 1: ARSLLPLSTSLDHRSKEELHQDCLVLATAKHSRELNEDVSADVEERFHLGLFTDRATLYRMIDIEGKGHLENGHPELFHQLMLWKGDLKGVLQTAAERGELTDNLVAMAPAAGYHVWLWAVEAFAKQLCFQDQYVKAASHLLSIHKVYEAVELLKSNHFYREAIAIAKARLRPEDPVLKDLYLSWGTVLERDGHYAVAAKCYLGATCAYDAAKVLAKKGDAASLRTAAELAAIVGEDELSASLALRCAQELLLANNWVGAQEALQLHESLQGQRLVFCLLELLSRHLEEKQLSEGKSSSSYHTWNTGTEGPFVERVTAVWKSIFSLDTPEQYQEAFQKLQNIKYPSATNNTPAKQLLLHICHDLTLAVLSQQMASWDEAVQALLRAVVRSYDSGSFTIMQEVYSAFLPDGCDHLRDKLGDHQSPATPAFKSLEAFFLYGRLYEFWWSLSRPCPNSSVWVRAGHRTLSVEPSQQLDTASTEETDPETSQPEPNRPSELDLRLTEEGERMLSTFKELFSEKHASLQNSQRTVAEVQETLAEMIRQHQKSQLCKSTANGPDKNEPEVEAEQPLCSSQSQCKEEKNEPLSLPELTKRLTEANQRMAKFPESIKAWPFPDVLECCLVLLLIRSHFPGCLAQEMQQQAQELLQKYGNTKTYRRHCQTFCM
chain 2: MGQEPRTLPPSPNWYCARCSDAVPGGLFGFAARTSVFLVRVGPGAGESPGTPPFRVIGELVGHTERVSGFTFSHHPGQYNLCATSSDDGTVKIWDVETKTVVTEHALHQHTISTLHWSPRVKDLIVSGDEKGVVFCYWFNRNDSQHLFIEPRTIFCLTCSPHHEDLVAIGYKDGIVVIIDISKKGEVIHRLRGHDDEIHSIAWCPLPGEDCLSINQEETSEEAEITNGNAVAQAPVTKGCYLATGSKDQTIRIWSCSRGRGVMILKLPFLKRRGGGIDPTVKERLWLTLHWPSNQPTQLVSSCFGGELLQWDLTQSWRRKYTLFSASSEGQNHSRIVFNLCPLQTEDDKQLLLSTSMDRDVKCWDIATLECSWTLPSLGGFAYSLAFSSVDIGSLAIGVGDGMIRVWNTLSIKNNYDVKNFWQGVKSKVTALCWHPTKEGCLAFGTDDGKVGLYDTYSNKPPQISSTYHKKTVYTLAWGPPVPPMSLGGEGDRPSLALYSCGGEGIVLQHNPWKLSGEAFDINKLIRDTNSIKYKLPVHTEISWKADGKIMALGNEDGSIEIFQIPNLKLICTIQQHHKLVNTISWHHEHGSQPELSYLMASGSNNAVIYVHNLKTVIESSPESPVTITEPYRTLSGHTAKITSVAWSPHHDGRLVSASYDGTAQVWDALREEPLCNFRGHRGRLLCVAWSPLDPDCIYSGADDFCVHKWLTSMQDHSRPPQGKKSIELEKKRLSQPKAKPKKKKKPTLRTPVKLESIDGNEEESMKENSGPVENGVSDQEGEEQAREPELPCGLAPAVSREPVICTPVSSGFEKSKVTINNKVILLKKEPPKEKPETLIKKRKARSLLPLSTSLDHRSKEELHQDCLVLATAKHSRELNEDVSADVEERFHLGLFTDRATLYRMIDIEGKGHLENGHPELFHQLMLWKGDLKGVLQTAAERGELTDNLVAMAPAAGYHVWLWAVEAFAKQLCFQDQYVKAASHLLSIHKVYEAVELLKSNHFYREAIAIAKARLRPEDPVLKDLYLSWGTVLERDGHYAVAAKCYLGATCAYDAAKVLAKKGDAASLRTAAELAAIVGEDELSASLALRCAQELLLANNWVGAQEALQLHESLQGQRLVFCLLELLSRHLEEKQLSEGKSSSSYHTWNTGTEGPFVERVTAVWKSIFSLDTPEQYQEAFQKLQNIKYPSATNNTPAKQLLLHICHDLTLAVLSQQMASWDEAVQALLRAVVRSYDSGSFTIMQEVYSAFLPDGCDHLRDKLGDHQSPATPAFKSLEAFFLYGRLYEFWWSLSRPCPNSSVWVRAGHRTLSVEPSQQLDTASTEETDPETSQPEPNRPSELDLRLTEEGERMLSTFKELFSEKHASLQNSQRTVAEVQETLAEMIRQHQKSQLCKSTANGPDKNEPEVEAEQPLCSSQSQCKEEKNEPLSLPELTKRLTEANQRMAKFPESIKAWPFPDVLECCLVLLLIRSHFPGCLAQEMQQQAQELLQKYGNTKTYRRHCQTFCM
B2: Xpress-His G5_(1–1287) [not stated] / G5_(1–1508)-FLAG [not stated] (parent complex)
chain 1: MGQEPRTLPPSPNWYCARCSDAVPGGLFGFAARTSVFLVRVGPGAGESPGTPPFRVIGELVGHTERVSGFTFSHHPGQYNLCATSSDDGTVKIWDVETKTVVTEHALHQHTISTLHWSPRVKDLIVSGDEKGVVFCYWFNRNDSQHLFIEPRTIFCLTCSPHHEDLVAIGYKDGIVVIIDISKKGEVIHRLRGHDDEIHSIAWCPLPGEDCLSINQEETSEEAEITNGNAVAQAPVTKGCYLATGSKDQTIRIWSCSRGRGVMILKLPFLKRRGGGIDPTVKERLWLTLHWPSNQPTQLVSSCFGGELLQWDLTQSWRRKYTLFSASSEGQNHSRIVFNLCPLQTEDDKQLLLSTSMDRDVKCWDIATLECSWTLPSLGGFAYSLAFSSVDIGSLAIGVGDGMIRVWNTLSIKNNYDVKNFWQGVKSKVTALCWHPTKEGCLAFGTDDGKVGLYDTYSNKPPQISSTYHKKTVYTLAWGPPVPPMSLGGEGDRPSLALYSCGGEGIVLQHNPWKLSGEAFDINKLIRDTNSIKYKLPVHTEISWKADGKIMALGNEDGSIEIFQIPNLKLICTIQQHHKLVNTISWHHEHGSQPELSYLMASGSNNAVIYVHNLKTVIESSPESPVTITEPYRTLSGHTAKITSVAWSPHHDGRLVSASYDGTAQVWDALREEPLCNFRGHRGRLLCVAWSPLDPDCIYSGADDFCVHKWLTSMQDHSRPPQGKKSIELEKKRLSQPKAKPKKKKKPTLRTPVKLESIDGNEEESMKENSGPVENGVSDQEGEEQAREPELPCGLAPAVSREPVICTPVSSGFEKSKVTINNKVILLKKEPPKEKPETLIKKRKARSLLPLSTSLDHRSKEELHQDCLVLATAKHSRELNEDVSADVEERFHLGLFTDRATLYRMIDIEGKGHLENGHPELFHQLMLWKGDLKGVLQTAAERGELTDNLVAMAPAAGYHVWLWAVEAFAKQLCFQDQYVKAASHLLSIHKVYEAVELLKSNHFYREAIAIAKARLRPEDPVLKDLYLSWGTVLERDGHYAVAAKCYLGATCAYDAAKVLAKKGDAASLRTAAELAAIVGEDELSASLALRCAQELLLANNWVGAQEALQLHESLQGQRLVFCLLELLSRHLEEKQLSEGKSSSSYHTWNTGTEGPFVERVTAVWKSIFSLDTPEQYQEAFQKLQNIKYPSATNNTPAKQLLLHICHDLTLAVLSQQMASWDEAVQALLRAVVRSYDSGSFTIMQEVYSAFLPDGCDHLRDKLGDHQSPATPAFKSLEAFFLYGRLYE
chain 2: B1 chain 2
B3: Xpress-His G5_(845–1287) [not stated] / G5_(1–1508)-FLAG [not stated] (parent complex)
chain 1: ARSLLPLSTSLDHRSKEELHQDCLVLATAKHSRELNEDVSADVEERFHLGLFTDRATLYRMIDIEGKGHLENGHPELFHQLMLWKGDLKGVLQTAAERGELTDNLVAMAPAAGYHVWLWAVEAFAKQLCFQDQYVKAASHLLSIHKVYEAVELLKSNHFYREAIAIAKARLRPEDPVLKDLYLSWGTVLERDGHYAVAAKCYLGATCAYDAAKVLAKKGDAASLRTAAELAAIVGEDELSASLALRCAQELLLANNWVGAQEALQLHESLQGQRLVFCLLELLSRHLEEKQLSEGKSSSSYHTWNTGTEGPFVERVTAVWKSIFSLDTPEQYQEAFQKLQNIKYPSATNNTPAKQLLLHICHDLTLAVLSQQMASWDEAVQALLRAVVRSYDSGSFTIMQEVYSAFLPDGCDHLRDKLGDHQSPATPAFKSLEAFFLYGRLYE
chain 2: B1 chain 2

Variants of: B1
Test: pull-down; HEK293 cell lysates; western blot with anti-FLAG and anti-Xpress; n = 3; read off a plot

response | Variant
~0.38 relative intensity (PD/In) | chain 1 A107E

Variants of: B2
Test: pull-down; HEK293 cell lysates; western blot with anti-FLAG and anti-Xpress; n = 5; read off a plot

response | Variant
~0.29 relative intensity (PD/In) | chain 1 A951E

Variants of: B3
Test: pull-down; HEK293 cell lysates; western blot with anti-FLAG and anti-Xpress; read off a plot

response | Variant
~0.33 relative intensity (PD/In) | chain 1 A107E
